Experimental data published in the Human Domainome abundance scans (Beltran et al. 2025).
± gives the uncertainty stated by the source.

B1: Peripheral plasma membrane protein CASK, residues 488 to 569; numbered along this chain, O14936 (parent)
chain: VRLVQFQKNTDEPMGITLKMNELNHCIVARIMHGGMIHRQGTLHVGDEIREINGISVANQTVEQLQKMLREMRGSITFKIVP

Variants of: B1
Assay: abundance fitness (aPCA) (normalised: wild type 0, dead -1); higher = more abundant; growth selection in yeast, the domain comes from the species named
Settings: Homo sapiens
With H25D the abundance fitness was -0.163 ± 0.037.
H25Q showed an abundance fitness of 0.019 ± 0.03.
H25Y gave an abundance fitness of -0.102 ± 0.047.
Work on H25T yielded an abundance fitness of -0.09 ± 0.029.
In the case of H25G, the abundance fitness is reported as -0.046 ± 0.021.
H25F gave an abundance fitness of -0.194 ± 0.05.
For H25W, the abundance fitness was -0.32 ± 0.031.
For H25L, the abundance fitness was -0.064 ± 0.025.
H25P gave an abundance fitness of -0.819 ± 0.06.
With H25M the abundance fitness was -0.019 ± 0.031.
Variant H25E has an abundance fitness of 0.019 ± 0.027.
In the case of H25A, the abundance fitness is reported as -0.016 ± 0.024.
For H25R, the abundance fitness was -0.016 ± 0.021.
In the case of H25N, the abundance fitness is reported as 0.027 ± 0.036.
H25C gave an abundance fitness of -0.013 ± 0.031.
With H25I the abundance fitness was -0.073 ± 0.047.
With I27K the abundance fitness was -0.175 ± 0.038.
I27T gave an abundance fitness of -0.021 ± 0.03.
I27V showed an abundance fitness of -0.045 ± 0.023.
With I27W the abundance fitness was -0.187 ± 0.027.
I27S gave an abundance fitness of -0.17 ± 0.024.
With I27Q the abundance fitness was -0.106 ± 0.03.
With I27A the abundance fitness was -0.166 ± 0.025.
I27E showed an abundance fitness of -0.05 ± 0.03.
With I27R the abundance fitness was -0.227 ± 0.022.
I27Y gave an abundance fitness of 0.007 ± 0.037.
I27D gave an abundance fitness of -1.05 ± 0.1.
In the case of I27M, the abundance fitness is reported as -0.052 ± 0.03.
For I27C, the abundance fitness was -0.16 ± 0.029.
I27F showed an abundance fitness of -0.08 ± 0.037.
I27P showed an abundance fitness of -0.883 ± 0.067.
In the case of E22W, the abundance fitness is reported as -0.138 ± 0.033.
Work on E22D yielded an abundance fitness of 0.031 ± 0.036.
Work on E22L yielded an abundance fitness of -0.135 ± 0.032.
Variant E22P has an abundance fitness of -0.03 ± 0.04.
In the case of E22Q, the abundance fitness is reported as 0.008 ± 0.039.
In the case of E22M, the abundance fitness is reported as -0.078 ± 0.041.
Work on E22V yielded an abundance fitness of -0.079 ± 0.027.
For E22C, the abundance fitness was -0.089 ± 0.045.
Variant E22N has an abundance fitness of -0.075 ± 0.071.
In the case of E22G, the abundance fitness is reported as 0.022 ± 0.023.
Work on E22Y yielded an abundance fitness of 0.028 ± 0.066.
For E22F, the abundance fitness was -0.277 ± 0.074.
E22R gave an abundance fitness of 0.001 ± 0.025.
For E22T, the abundance fitness was -0.021 ± 0.038.
E22K gave an abundance fitness of -0.004 ± 0.042.
Work on E22S yielded an abundance fitness of -0.022 ± 0.031.
Variant E22H has an abundance fitness of -0.037 ± 0.05.
Work on E22I yielded an abundance fitness of -0.185 ± 0.067.
In the case of A29M, the abundance fitness is reported as -0.057 ± 0.047.
A29C showed an abundance fitness of -0.279 ± 0.064.
For A29L, the abundance fitness was -0.188 ± 0.041.
For A29Y, the abundance fitness was -0.198 ± 0.11.
A29S showed an abundance fitness of -0.051 ± 0.038.
A29I gave an abundance fitness of -0.115 ± 0.066.
Work on A29R yielded an abundance fitness of -0.097 ± 0.03.
Work on A29F yielded an abundance fitness of -0.362 ± 0.13.
For A29G, the abundance fitness was -0.08 ± 0.027.
In the case of A29T, the abundance fitness is reported as -0.069 ± 0.054.
Variant A29E has an abundance fitness of 0.003 ± 0.038.
In the case of A29H, the abundance fitness is reported as -0.013 ± 0.078.
A29P gave an abundance fitness of -0.936 ± 0.15.
In the case of A29V, the abundance fitness is reported as -0.11 ± 0.034.
In the case of A29Q, the abundance fitness is reported as -0.008 ± 0.044.
A29N gave an abundance fitness of -0.201 ± 0.087.
A29K showed an abundance fitness of -0.059 ± 0.043.
With A29W the abundance fitness was -0.068 ± 0.037.
With N24W the abundance fitness was -0.467 ± 0.032.
N24P gave an abundance fitness of -0.922 ± 0.066.
Variant N24T has an abundance fitness of -0.265 ± 0.03.
In the case of N24H, the abundance fitness is reported as -0.006 ± 0.037.
For N24D, the abundance fitness was -0.024 ± 0.033.
N24M gave an abundance fitness of -0.204 ± 0.03.
In the case of N24S, the abundance fitness is reported as -0.045 ± 0.023.
With N24Y the abundance fitness was -0.226 ± 0.043.
N24L gave an abundance fitness of -0.427 ± 0.026.
With N24E the abundance fitness was -0.065 ± 0.026.
Work on N24R yielded an abundance fitness of -0.064 ± 0.02.
N24I showed an abundance fitness of -0.89 ± 0.11.
Work on N24F yielded an abundance fitness of -0.252 ± 0.045.
Variant N24K has an abundance fitness of -0.032 ± 0.029.
N24C showed an abundance fitness of -0.159 ± 0.033.
For N24V, the abundance fitness was -0.7 ± 0.034.
N24A showed an abundance fitness of -0.14 ± 0.023.
N24G showed an abundance fitness of 0.023 ± 0.019.
With C26R the abundance fitness was -0.642 ± 0.029.
C26I gave an abundance fitness of 0.032 ± 0.05.
In the case of C26A, the abundance fitness is reported as -0.067 ± 0.025.
C26Q showed an abundance fitness of -0.708 ± 0.059.
Variant C26V has an abundance fitness of 0.015 ± 0.023.
In the case of C26W, the abundance fitness is reported as -0.031 ± 0.026.
Variant C26D has an abundance fitness of -0.868 ± 0.091.
In the case of C26G, the abundance fitness is reported as -0.736 ± 0.029.
C26P showed an abundance fitness of 0.015 ± 0.029.
C26S gave an abundance fitness of -0.732 ± 0.043.
Work on C26Y yielded an abundance fitness of -0.07 ± 0.048.
C26E gave an abundance fitness of -0.909 ± 0.059.
With C26K the abundance fitness was -0.202 ± 0.04.
For C26M, the abundance fitness was -0.076 ± 0.033.
Work on C26L yielded an abundance fitness of -0.083 ± 0.026.
Work on L23A yielded an abundance fitness of 0.039 ± 0.028.
L23R showed an abundance fitness of 0.046 ± 0.022.
For L23F, the abundance fitness was -0.04 ± 0.049.
Variant L23S has an abundance fitness of 0.028 ± 0.029.
L23C gave an abundance fitness of 0.013 ± 0.035.
Work on L23P yielded an abundance fitness of -0.073 ± 0.036.
For L23Y, the abundance fitness was 0.128 ± 0.043.
L23V showed an abundance fitness of 0.012 ± 0.025.
With L23I the abundance fitness was 0.054 ± 0.057.
Work on L23E yielded an abundance fitness of 0.086 ± 0.028.
Variant L23N has an abundance fitness of -0.038 ± 0.051.
Variant L23H has an abundance fitness of 0.028 ± 0.049.
L23K showed an abundance fitness of 0.005 ± 0.035.
Variant L23W has an abundance fitness of 0.007 ± 0.026.
For L23G, the abundance fitness was 0.033 ± 0.021.
Variant L23T has an abundance fitness of 0.044 ± 0.037.
L23Q gave an abundance fitness of 0.043 ± 0.035.
For R30P, the abundance fitness was -1.11 ± 0.23.
In the case of R30G, the abundance fitness is reported as -0.005 ± 0.024.
Work on R30L yielded an abundance fitness of -0.283 ± 0.035.
In the case of R30A, the abundance fitness is reported as 0.008 ± 0.034.
For R30H, the abundance fitness was 0.037 ± 0.057.
For R30F, the abundance fitness was -0.083 ± 0.1.
For R30K, the abundance fitness was 0.069 ± 0.047.
In the case of R30I, the abundance fitness is reported as -0.372 ± 0.087.
Work on R30N yielded an abundance fitness of 0.012 ± 0.063.
For R30M, the abundance fitness was -0.112 ± 0.046.
Variant R30C has an abundance fitness of -0.055 ± 0.062.
Variant R30E has an abundance fitness of 0.027 ± 0.036.
Variant R30D has an abundance fitness of -0.012 ± 0.063.
With N21Y the abundance fitness was -0.282 ± 0.041.
Variant N21R has an abundance fitness of -0.268 ± 0.025.
With N21S the abundance fitness was -0.045 ± 0.024.
N21C showed an abundance fitness of -0.201 ± 0.042.
N21P showed an abundance fitness of -0.33 ± 0.031.
In the case of N21F, the abundance fitness is reported as -0.415 ± 0.05.
Work on N21H yielded an abundance fitness of -0.25 ± 0.038.
With N21W the abundance fitness was -0.6 ± 0.044.
In the case of N21V, the abundance fitness is reported as -0.145 ± 0.028.
N21I gave an abundance fitness of -0.201 ± 0.041.
N21L showed an abundance fitness of -0.228 ± 0.025.
With N21E the abundance fitness was -0.136 ± 0.032.
N21Q gave an abundance fitness of -0.226 ± 0.034.
Work on N21K yielded an abundance fitness of -0.186 ± 0.031.
N21G gave an abundance fitness of -0.186 ± 0.026.
N21M showed an abundance fitness of -0.258 ± 0.033.
Variant N21T has an abundance fitness of -0.041 ± 0.027.
Work on M20W yielded an abundance fitness of -0.044 ± 0.032.
M20T gave an abundance fitness of -0.088 ± 0.04.
For M20V, the abundance fitness was -0.046 ± 0.03.
M20R showed an abundance fitness of -0.034 ± 0.024.
M20Y showed an abundance fitness of -0.01 ± 0.066.
With M20S the abundance fitness was -0.154 ± 0.033.
V28Y showed an abundance fitness of -0.779 ± 0.11.
Work on V28G yielded an abundance fitness of -0.992 ± 0.045.
Variant V28K has an abundance fitness of -1.16 ± 0.12.
In the case of V28I, the abundance fitness is reported as 0.03 ± 0.041.
Variant V28S has an abundance fitness of -0.867 ± 0.063.
Variant V28D has an abundance fitness of -0.898 ± 0.096.
In the case of V28W, the abundance fitness is reported as -0.931 ± 0.06.
For V28P, the abundance fitness was -1.08 ± 0.097.
Work on V28A yielded an abundance fitness of -0.479 ± 0.032.
Work on V28E yielded an abundance fitness of -1.01 ± 0.068.
V28T showed an abundance fitness of -0.651 ± 0.051.
For V28N, the abundance fitness was -1.01 ± 0.25.
Variant V28C has an abundance fitness of -0.272 ± 0.036.
In the case of V28L, the abundance fitness is reported as -0.424 ± 0.03.
